# Patent publication US20210388087A1 (Chugai, published 2021)
# T1: Human CD3eg linker (human)
# T1 construct: Single-chain construct; also called recombinant human CD3
# T1 chain: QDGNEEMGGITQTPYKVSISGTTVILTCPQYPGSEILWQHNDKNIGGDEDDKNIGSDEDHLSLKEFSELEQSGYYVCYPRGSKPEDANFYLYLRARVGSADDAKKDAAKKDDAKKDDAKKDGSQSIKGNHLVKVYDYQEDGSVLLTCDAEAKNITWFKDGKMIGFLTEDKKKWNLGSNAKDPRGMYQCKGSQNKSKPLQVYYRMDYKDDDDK
# B1: H183/L072 VL L27bF (antibody, name in Kabat numbering, V domains shown)
# VH: QVQLVESGGGLVQPGRSLRLSCAASGFTFSNAWMHWVRQAPGKGLEWVAQIKDKGNAYAAYYAPSVKGRFTISRDDSKNSIYLQMNSLKTEDTAVYYCHYVHYASASTVLPAFGVDAWGQGTTVTVSS
# VL: DIVMTQSPLSLPVTPGEPASISCQASQEFVHMNRNTYLHWYQQKPGQAPRLLIYKVSNRFPGVPDRFSGSGSGTDFTLKISRVEAEDVGVYYCAQGTSVPFTFGQGTKLEIK
# B2: H183/L072 VL L27bH (antibody, name in Kabat numbering, V domains shown)
# VH: QVQLVESGGGLVQPGRSLRLSCAASGFTFSNAWMHWVRQAPGKGLEWVAQIKDKGNAYAAYYAPSVKGRFTISRDDSKNSIYLQMNSLKTEDTAVYYCHYVHYASASTVLPAFGVDAWGQGTTVTVSS
# VL: DIVMTQSPLSLPVTPGEPASISCQASQEHVHMNRNTYLHWYQQKPGQAPRLLIYKVSNRFPGVPDRFSGSGSGTDFTLKISRVEAEDVGVYYCAQGTSVPFTFGQGTKLEIK
# B3: H183/L072 VL L27bI (antibody, name in Kabat numbering, V domains shown)
# VH: QVQLVESGGGLVQPGRSLRLSCAASGFTFSNAWMHWVRQAPGKGLEWVAQIKDKGNAYAAYYAPSVKGRFTISRDDSKNSIYLQMNSLKTEDTAVYYCHYVHYASASTVLPAFGVDAWGQGTTVTVSS
# VL: DIVMTQSPLSLPVTPGEPASISCQASQEIVHMNRNTYLHWYQQKPGQAPRLLIYKVSNRFPGVPDRFSGSGSGTDFTLKISRVEAEDVGVYYCAQGTSVPFTFGQGTKLEIK
# B4: H183/L072 VL L27bK (antibody, name in Kabat numbering, V domains shown)
# VH: QVQLVESGGGLVQPGRSLRLSCAASGFTFSNAWMHWVRQAPGKGLEWVAQIKDKGNAYAAYYAPSVKGRFTISRDDSKNSIYLQMNSLKTEDTAVYYCHYVHYASASTVLPAFGVDAWGQGTTVTVSS
# VL: DIVMTQSPLSLPVTPGEPASISCQASQEKVHMNRNTYLHWYQQKPGQAPRLLIYKVSNRFPGVPDRFSGSGSGTDFTLKISRVEAEDVGVYYCAQGTSVPFTFGQGTKLEIK
# B5: H183/L072 VL L27bM (antibody, name in Kabat numbering, V domains shown)
# VH: QVQLVESGGGLVQPGRSLRLSCAASGFTFSNAWMHWVRQAPGKGLEWVAQIKDKGNAYAAYYAPSVKGRFTISRDDSKNSIYLQMNSLKTEDTAVYYCHYVHYASASTVLPAFGVDAWGQGTTVTVSS
# VL: DIVMTQSPLSLPVTPGEPASISCQASQEMVHMNRNTYLHWYQQKPGQAPRLLIYKVSNRFPGVPDRFSGSGSGTDFTLKISRVEAEDVGVYYCAQGTSVPFTFGQGTKLEIK
# B6: H183/L072 VL L27bN (antibody, name in Kabat numbering, V domains shown)
# VH: QVQLVESGGGLVQPGRSLRLSCAASGFTFSNAWMHWVRQAPGKGLEWVAQIKDKGNAYAAYYAPSVKGRFTISRDDSKNSIYLQMNSLKTEDTAVYYCHYVHYASASTVLPAFGVDAWGQGTTVTVSS
# VL: DIVMTQSPLSLPVTPGEPASISCQASQENVHMNRNTYLHWYQQKPGQAPRLLIYKVSNRFPGVPDRFSGSGSGTDFTLKISRVEAEDVGVYYCAQGTSVPFTFGQGTKLEIK
# B7: H183/L072 VL L27bP (antibody, name in Kabat numbering, V domains shown)
# VH: QVQLVESGGGLVQPGRSLRLSCAASGFTFSNAWMHWVRQAPGKGLEWVAQIKDKGNAYAAYYAPSVKGRFTISRDDSKNSIYLQMNSLKTEDTAVYYCHYVHYASASTVLPAFGVDAWGQGTTVTVSS
# VL: DIVMTQSPLSLPVTPGEPASISCQASQEPVHMNRNTYLHWYQQKPGQAPRLLIYKVSNRFPGVPDRFSGSGSGTDFTLKISRVEAEDVGVYYCAQGTSVPFTFGQGTKLEIK
# B8: H183/L072 VL L27bQ (antibody, name in Kabat numbering, V domains shown)
# VH: QVQLVESGGGLVQPGRSLRLSCAASGFTFSNAWMHWVRQAPGKGLEWVAQIKDKGNAYAAYYAPSVKGRFTISRDDSKNSIYLQMNSLKTEDTAVYYCHYVHYASASTVLPAFGVDAWGQGTTVTVSS
# VL: DIVMTQSPLSLPVTPGEPASISCQASQEQVHMNRNTYLHWYQQKPGQAPRLLIYKVSNRFPGVPDRFSGSGSGTDFTLKISRVEAEDVGVYYCAQGTSVPFTFGQGTKLEIK
# B9: H183/L072 VL L27bS (antibody, name in Kabat numbering, V domains shown)
# VH: QVQLVESGGGLVQPGRSLRLSCAASGFTFSNAWMHWVRQAPGKGLEWVAQIKDKGNAYAAYYAPSVKGRFTISRDDSKNSIYLQMNSLKTEDTAVYYCHYVHYASASTVLPAFGVDAWGQGTTVTVSS
# VL: DIVMTQSPLSLPVTPGEPASISCQASQESVHMNRNTYLHWYQQKPGQAPRLLIYKVSNRFPGVPDRFSGSGSGTDFTLKISRVEAEDVGVYYCAQGTSVPFTFGQGTKLEIK
# B10: H183/L072 VL L27bT (antibody, name in Kabat numbering, V domains shown)
# VH: QVQLVESGGGLVQPGRSLRLSCAASGFTFSNAWMHWVRQAPGKGLEWVAQIKDKGNAYAAYYAPSVKGRFTISRDDSKNSIYLQMNSLKTEDTAVYYCHYVHYASASTVLPAFGVDAWGQGTTVTVSS
# VL: DIVMTQSPLSLPVTPGEPASISCQASQETVHMNRNTYLHWYQQKPGQAPRLLIYKVSNRFPGVPDRFSGSGSGTDFTLKISRVEAEDVGVYYCAQGTSVPFTFGQGTKLEIK
# B11: H183/L072 VL L27bV (antibody, name in Kabat numbering, V domains shown)
# VH: QVQLVESGGGLVQPGRSLRLSCAASGFTFSNAWMHWVRQAPGKGLEWVAQIKDKGNAYAAYYAPSVKGRFTISRDDSKNSIYLQMNSLKTEDTAVYYCHYVHYASASTVLPAFGVDAWGQGTTVTVSS
# VL: DIVMTQSPLSLPVTPGEPASISCQASQEVVHMNRNTYLHWYQQKPGQAPRLLIYKVSNRFPGVPDRFSGSGSGTDFTLKISRVEAEDVGVYYCAQGTSVPFTFGQGTKLEIK
# B12: H183/L072 VL L33A (antibody, name in Kabat numbering, V domains shown)
# VH: QVQLVESGGGLVQPGRSLRLSCAASGFTFSNAWMHWVRQAPGKGLEWVAQIKDKGNAYAAYYAPSVKGRFTISRDDSKNSIYLQMNSLKTEDTAVYYCHYVHYASASTVLPAFGVDAWGQGTTVTVSS
# VL: DIVMTQSPLSLPVTPGEPASISCQASQELVHMNRNTYAHWYQQKPGQAPRLLIYKVSNRFPGVPDRFSGSGSGTDFTLKISRVEAEDVGVYYCAQGTSVPFTFGQGTKLEIK
# B13: H183/L072 VL L33D (antibody, name in Kabat numbering, V domains shown)
# VH: QVQLVESGGGLVQPGRSLRLSCAASGFTFSNAWMHWVRQAPGKGLEWVAQIKDKGNAYAAYYAPSVKGRFTISRDDSKNSIYLQMNSLKTEDTAVYYCHYVHYASASTVLPAFGVDAWGQGTTVTVSS
# VL: DIVMTQSPLSLPVTPGEPASISCQASQELVHMNRNTYDHWYQQKPGQAPRLLIYKVSNRFPGVPDRFSGSGSGTDFTLKISRVEAEDVGVYYCAQGTSVPFTFGQGTKLEIK
# B14: H183/L072 VL L33E (antibody, name in Kabat numbering, V domains shown)
# VH: QVQLVESGGGLVQPGRSLRLSCAASGFTFSNAWMHWVRQAPGKGLEWVAQIKDKGNAYAAYYAPSVKGRFTISRDDSKNSIYLQMNSLKTEDTAVYYCHYVHYASASTVLPAFGVDAWGQGTTVTVSS
# VL: DIVMTQSPLSLPVTPGEPASISCQASQELVHMNRNTYEHWYQQKPGQAPRLLIYKVSNRFPGVPDRFSGSGSGTDFTLKISRVEAEDVGVYYCAQGTSVPFTFGQGTKLEIK
# B15: H183/L072 VL L33F (antibody, name in Kabat numbering, V domains shown)
# VH: QVQLVESGGGLVQPGRSLRLSCAASGFTFSNAWMHWVRQAPGKGLEWVAQIKDKGNAYAAYYAPSVKGRFTISRDDSKNSIYLQMNSLKTEDTAVYYCHYVHYASASTVLPAFGVDAWGQGTTVTVSS
# VL: DIVMTQSPLSLPVTPGEPASISCQASQELVHMNRNTYFHWYQQKPGQAPRLLIYKVSNRFPGVPDRFSGSGSGTDFTLKISRVEAEDVGVYYCAQGTSVPFTFGQGTKLEIK
# B16: H183/L072 VL L33G (antibody, name in Kabat numbering, V domains shown)
# VH: QVQLVESGGGLVQPGRSLRLSCAASGFTFSNAWMHWVRQAPGKGLEWVAQIKDKGNAYAAYYAPSVKGRFTISRDDSKNSIYLQMNSLKTEDTAVYYCHYVHYASASTVLPAFGVDAWGQGTTVTVSS
# VL: DIVMTQSPLSLPVTPGEPASISCQASQELVHMNRNTYGHWYQQKPGQAPRLLIYKVSNRFPGVPDRFSGSGSGTDFTLKISRVEAEDVGVYYCAQGTSVPFTFGQGTKLEIK
# B17: H183/L072 VL L33H (antibody, name in Kabat numbering, V domains shown)
# VH: QVQLVESGGGLVQPGRSLRLSCAASGFTFSNAWMHWVRQAPGKGLEWVAQIKDKGNAYAAYYAPSVKGRFTISRDDSKNSIYLQMNSLKTEDTAVYYCHYVHYASASTVLPAFGVDAWGQGTTVTVSS
# VL: DIVMTQSPLSLPVTPGEPASISCQASQELVHMNRNTYHHWYQQKPGQAPRLLIYKVSNRFPGVPDRFSGSGSGTDFTLKISRVEAEDVGVYYCAQGTSVPFTFGQGTKLEIK
# B18: H183/L072 VL L33K (antibody, name in Kabat numbering, V domains shown)
# VH: QVQLVESGGGLVQPGRSLRLSCAASGFTFSNAWMHWVRQAPGKGLEWVAQIKDKGNAYAAYYAPSVKGRFTISRDDSKNSIYLQMNSLKTEDTAVYYCHYVHYASASTVLPAFGVDAWGQGTTVTVSS
# VL: DIVMTQSPLSLPVTPGEPASISCQASQELVHMNRNTYKHWYQQKPGQAPRLLIYKVSNRFPGVPDRFSGSGSGTDFTLKISRVEAEDVGVYYCAQGTSVPFTFGQGTKLEIK
# B19: H183/L072 VL L33M (antibody, name in Kabat numbering, V domains shown)
# VH: QVQLVESGGGLVQPGRSLRLSCAASGFTFSNAWMHWVRQAPGKGLEWVAQIKDKGNAYAAYYAPSVKGRFTISRDDSKNSIYLQMNSLKTEDTAVYYCHYVHYASASTVLPAFGVDAWGQGTTVTVSS
# VL: DIVMTQSPLSLPVTPGEPASISCQASQELVHMNRNTYMHWYQQKPGQAPRLLIYKVSNRFPGVPDRFSGSGSGTDFTLKISRVEAEDVGVYYCAQGTSVPFTFGQGTKLEIK
# B20: H183/L072 VL L33N (antibody, name in Kabat numbering, V domains shown)
# VH: QVQLVESGGGLVQPGRSLRLSCAASGFTFSNAWMHWVRQAPGKGLEWVAQIKDKGNAYAAYYAPSVKGRFTISRDDSKNSIYLQMNSLKTEDTAVYYCHYVHYASASTVLPAFGVDAWGQGTTVTVSS
# VL: DIVMTQSPLSLPVTPGEPASISCQASQELVHMNRNTYNHWYQQKPGQAPRLLIYKVSNRFPGVPDRFSGSGSGTDFTLKISRVEAEDVGVYYCAQGTSVPFTFGQGTKLEIK
# Biological target: T1, Human CD3eg linker
# Assay: SPR; fold vs parent H183/L072
row,Binder,fold change of affinity [fold]
1,B1,0.3
2,B2,0
3,B3,0.5
4,B4,0
5,B5,0.7
6,B6,0
7,B7,1.8
8,B8,0
9,B9,0
10,B10,0.6
11,B11,1.7
12,B12,0.6
13,B13,0
14,B14,0
15,B15,1.1
16,B16,0
17,B17,1.4
18,B18,0
19,B19,1.1
20,B20,0
